Assay results: article PMC11613296

Biological target: Tau (2N4R Tau; Tau(291–391)) 2-441 (UniProt P10636)
Experiment: ELISA, immobilised Tau(291–391), soluble 2N4R Tau
Conditions: reference: unmodified (WT) Tau(291–391)

Substance	binding against the reference (sites S352)	binding against the reference (sites S356)
Tau (2N4R Tau; Tau(291–391)) 291-391 (from UniProt P10636-8) pS352 Tau(291–391)	weaker	
Tau (2N4R Tau; Tau(291–391)) 291-391 (from UniProt P10636-8) pS356 Tau(291–391)		weaker
